Laboratory results as given in PMC8079166 (Biochemical Journal, 2021).

B1: Full-length LAI Nef preincubated with 50 µM FynR96 SH3 (complex)
chain 1: […]
chain 2: not shown
modifications: RED-NHS dye label
B2: Fyn SH3 domain, wild type (FynR96) (domain or fragment)
chain: not shown
B3: Fyn SH3 domain R96W (domain or fragment)
chain: not shown
B4: Nef fragment containing H1 (residues 8–26) (peptide)
peptide: SSVVGWPTVRERMRRAEPA
B5: Full-length LAI Nef preincubated with 50 µM Fyn_(R96W) SH3 (complex)
chain 1: […]
chain 2: not shown
modifications: RED-NHS dye label
B6: Fyn SH3 domain R96I (domain or fragment)
chain: not shown
B7: HIV-1 LAI Nef ΔNΔL (residues 60–158;174–205) (domain or fragment)
chain: AQEEEEVGFPVTPQVPLRPMTYKAAVDLSHFLKEKGGLEGLIHSQRRQDILDLWIYHTQGYFPDWQNYTPGPGVRYPLTFGWCYKLVPVEPDKVEEANKDDPEREVLEWRFDSRLAFHHVARELHPEYFKN
B8: Nef ΔNΔL preincubated with 50 µM Fyn_(R96W) SH3 (complex)
chain 1: B7 chain
chain 2: not shown
modifications: RED-NHS dye label
B9: Nef ΔNΔL preincubated with 50 µM Fyn_(R96I) SH3 (complex)
chain 1: B7 chain
chain 2: not shown
modifications: RED-NHS dye label
B10: Nef ΔNΔL preincubated with 50 µM FynR96 SH3 (complex)
chain 1: B7 chain
chain 2: not shown
modifications: RED-NHS dye label
B11: HIV-1 LAI Nef WLΔN (residues 56–205) (domain or fragment)
chain: AWLEAQEEEEVGFPVTPQVPLRPMTYKAAVDLSHFLKEKGGLEGLIHSQRRQDILDLWIYHTQGYFPDWQNYTPGPGVRYPLTFGWCYKLVPVEPDKVEEANKGENTSLLHPVSLHGMDDPEREVLEWRFDSRLAFHHVARELHPEYFKN
B12: Nef WLΔN preincubated with 50 µM Fyn_(R96I) SH3 (complex)
chain 1: B11 chain
chain 2: not shown
modifications: RED-NHS dye label
B13: Nef WLΔN preincubated with 50 µM Fyn_(R96W) SH3 (complex)
chain 1: B11 chain
chain 2: not shown
modifications: RED-NHS dye label
B14: Nef WLΔN preincubated with 50 µM FynR96 SH3 (complex)
chain 1: B11 chain
chain 2: not shown
modifications: RED-NHS dye label
B15: Full-length LAI Nef preincubated with 50 µM Fyn_(R96I) SH3 (complex)
chain 1: […]
chain 2: not shown
modifications: RED-NHS dye label

Assays:
[1] = target: p85 subunit of PI3 kinase, nSH2–iSH2–cSH2 fragment (UniProt P27986 322-724); assay: MST
[2] = target: HIV-1 LAI Nef, full-length (HIV-1, LAI isolate, UniProt P03406); assay: ITC
[3] = target: HIV-1 SF2 Nef, full-length (HIV-1, SF2 isolate, UniProt P03407); assay: ITC
[4] = target: B7; assay: ITC
[5] = target: B11; assay: ITC
[6] = target: T1, HIV-1 LAI Nef ΔN (residues 60–205) (HIV-1, LAI isolate, UniProt P03406 60-205); assay: ITC
[7] = target: B7; assay: MST
[8] = target: B11; assay: MST
[9] = target: T1, HIV-1 LAI Nef ΔN (residues 60–205); assay: MST

B1 gave a Kd [1] of 141 ± 14 µM.

Binder B2 has a Kd [2] of 58.5 µM, a dH [2] of -45.9 kJ/mol and a Kd [3] of 28.7 µM. The dH [3] was -59.2 kJ/mol, the Kd [4] was 24.3 µM and the dH [4] was -14 kJ/mol. The Kd [5] was 50.8 µM, the dH [5] was -14.2 kJ/mol and the Kd [6] was 83.3 µM. It also gave a dH [6] of -34.3 kJ/mol.

B3 was tested, and the Kd [2] was 1.43 µM, the dH [2] was -50 kJ/mol and the “stoichiometry N” value [2] was 0.96. The Kd [3] was 0.12 µM, the dH [3] was -56.6 kJ/mol and the “stoichiometry N” value [3] was 0.91. The Kd [4] was 0.78 µM, the dH [4] was -46.7 kJ/mol and the “stoichiometry N” value [4] was 0.98. The Kd [5] was 1.45 µM, the dH [5] was -29.3 kJ/mol and the “stoichiometry N” value [5] was 0.94. For the same binder, the Kd [6] was 1.28 µM, the dH [6] was -56.5 kJ/mol and the “stoichiometry N” value [6] was 0.9.

With B4 the Kd [7] was 303 ± 50 µM, the Kd [8] was 1350 ± 219 µM and the Kd [9] was 699 ± 252 µM.

Binder B5 has a Kd [1] of 161 ± 17 µM.

For B6, the Kd [7] was 24 ± 8 µM, the Kd [2] was 0.79 µM and the dH [2] was -40.7 kJ/mol. The “stoichiometry N” value [2] was 0.93, the Kd [3] was 0.02 µM and the dH [3] was -77.2 kJ/mol. The “stoichiometry N” value [3] was 0.98, the Kd [4] was 3.86 µM and the dH [4] was -34 kJ/mol. The “stoichiometry N” value [4] was 0.97, the Kd [5] was 7.55 µM and the dH [5] was -21.5 kJ/mol. For the same binder, the “stoichiometry N” value [5] was 1.01, the Kd [6] was 5.06 µM and the dH [6] was -39.7 kJ/mol. For the same binder, the “stoichiometry N” value [6] was 0.87.

Binder B7 has a Kd [1] of 53 ± 3 µM.

With B8 the Kd [1] was 79 ± 16 µM.

In the case of B9, the Kd [1] is reported as 96 ± 18 µM.

Work on B10 yielded a Kd [1] of 47 ± 8 µM.

With B11 the Kd [1] was 72 ± 8 µM.

In the case of B12, the Kd [1] is reported as 107 ± 12 µM.

B13 was tested, and the Kd [1] was 108 ± 14 µM.

Work on B14 yielded a Kd [1] of 104 ± 11 µM.

In the case of B15, the Kd [1] is reported as 135 ± 10 µM.
